For this test, the target named is T1, CNA1 (Saccharomyces cerevisiae, UniProt P23287).
T1 chain: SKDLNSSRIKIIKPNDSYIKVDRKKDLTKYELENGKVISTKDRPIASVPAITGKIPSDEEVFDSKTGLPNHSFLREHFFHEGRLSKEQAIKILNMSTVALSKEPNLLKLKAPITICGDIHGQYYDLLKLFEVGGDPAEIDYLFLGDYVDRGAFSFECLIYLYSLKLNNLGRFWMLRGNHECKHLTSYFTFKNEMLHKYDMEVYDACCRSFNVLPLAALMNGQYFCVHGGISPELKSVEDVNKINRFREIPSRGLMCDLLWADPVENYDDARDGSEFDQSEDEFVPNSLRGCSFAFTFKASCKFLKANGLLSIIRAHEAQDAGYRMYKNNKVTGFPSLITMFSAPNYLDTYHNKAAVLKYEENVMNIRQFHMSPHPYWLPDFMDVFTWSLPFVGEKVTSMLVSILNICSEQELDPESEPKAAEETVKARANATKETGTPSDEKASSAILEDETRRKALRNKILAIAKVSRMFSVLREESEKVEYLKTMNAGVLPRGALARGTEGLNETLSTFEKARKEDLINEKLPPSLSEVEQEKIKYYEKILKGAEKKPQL
Briefly: SPROX.

B1: CPR1 (protein)
chain: not shown
modifications: cyclosporin A
One may read the Kd as the free concentration of one partner at which half of the binding sites on the other are occupied at equilibrium, for simple one-to-one binding. A low value points to higher affinity. B1 gave a Kd of 120 nM.

These data come from PMC3085011 (2011).
